Experimental data published in US12545899B2, “Luciferase enzymes for use with thermostable luciferins in bioluminescent assays” (Promega Corporation, priority 2018, dated 2026).

B1: MK0148: SEQ ID NO: 114; H244W+S193A+N228D+L305F+S306P+I109V+C38R+F55I+Y108F+A316W+Y339M+T342S+V348I+C257R+T289S+S313T+D435G+L437R+W510R (protein)
chain: MADKNILYGPEPFYPLEDGTAGEQMFDALSRYAAIPGRIALTNAHTKENVLYEEILKLSCRLAESFKKYGLKQNDTIAVCSENSLQFFLPVIASLYLGIIVAPVNDKFVERELIHSLGIVKPRIVFCSKNTFQKVLNVKSKLKSIETIIILDLNEDLGGYQCLNNFISQNSDSNLDVKKFKPYSFNRDDQVAAIMFSSGTTGLPKGVMLTHKNIVARFSIAKDPTFGDAINPTSAILTVIPFHWGFGMMTTLGYFTCGFRVVLMHTFEEKLFLQSLQDYKVESTLLVPTLMAFLAKSALVEKYDFPHLKEIATGGWPLSKEIGEMVKKRFKLNFVRQGMGLSETTSAILITPKGDAKPGSTGKIVPLHAVKVVDPTTGKILGPNEPGELYFKGPMIMKGYYNNEEATKAIIDNDGWLRSGDIAYYDNDGHFYIVGRRKSLIKYKGYQVAPAEIEGILLQHPYIVDAGVTGIPDEAAGELPAAGVVVQTGKYLNEQIVQDYVASQVSTAKWLRGGVKFLDEIPKGSTGKIDRKVLRQMLEKHTNGHHHHHHHH
B2: MK0151: SEQ ID NO: 116; H244W+S193A+N228D+L305F+S306P+I109V+C38R+F55I+Y108F+A316W+Y339M+T342S+V348I+S313T+D435G+L437R (protein)
chain: MADKNILYGPEPFYPLEDGTAGEQMFDALSRYAAIPGRIALTNAHTKENVLYEEILKLSCRLAESFKKYGLKQNDTIAVCSENSLQFFLPVIASLYLGIIVAPVNDKFVERELIHSLGIVKPRIVFCSKNTFQKVLNVKSKLKSIETIIILDLNEDLGGYQCLNNFISQNSDSNLDVKKFKPYSFNRDDQVAAIMFSSGTTGLPKGVMLTHKNIVARFSIAKDPTFGDAINPTSAILTVIPFHWGFGMMTTLGYFTRGFRVVLMHTFEEKLFLQSLQDYKVESTLLVPTLMAFLAKSALVEKYDFPHLKEIASGGWPLSKEIGEMVKKRFKLNFVRQGMGLSETTSAILITPRGDAKPGSTGKIVPLHAVKVVDPTTGKILGPNEPGELYFKGPMIMKGYYNNEEATKAIIDNDGWLRSGDIAYYDNDGHFYIVDRRKSLIKYKGYQVAPAEIEGILLQHPYIVDAGVTGIPDEAAGELPAAGVVVQTGKYLNEQIVQDYVASQVSTAKRLRGGVKFLDEIPKGSTGKIDRKVLRQMLEKHTNGHHHHHHHH
B3: MK0152: SEQ ID NO: 117; H244W+S193A+N228D+L305F+S306P+I109V+C38R+F55I+Y108F+A316W+Y339M+T342S+V348I+C257R+K353R+L437R+W510R (protein)
chain: MADKNILYGPEPFYPLEDGTAGEQMFDALSRYAAIPGRIALTNAHTKENVLYEEILKLSCRLAESFKKYGLKQNDTIAVCSENSLQFFLPVIASLYLGIIVAPVNDKFVERELIHSLGIVKPRIVFCSKNTFQKVLNVKSKLKSIETIIILDLNEDLGGYQCLNNFISQNSDSNLDVKKFKPYSFNRDDQVAAIMFSSGTTGLPKGVMLTHKNIVARFSIAKDPTFGDAINPTSAILTVIPFHWGFGMMTTLGYFTCGFRVVLMHTFEEKLFLQSLQDYKVESTLLVPSLMAFLAKSALVEKYDFPHLKEIASGGWPLSKEIGEMVKKRFKLNFVRQGMGLSETTSAILITPRGDAKPGSTGKIVPLHAVKVVDPTTGKILGPNEPGELYFKGPMIMKGYYNNEEATKAIIDNDGWLRSGDIAYYDNDGHFYIVGRLKSLIKYKGYQVAPAEIEGILLQHPYIVDAGVTGIPDEAAGELPAAGVVVQTGKYLNEQIVQDYVASQVSTAKRLRGGVKFLDEIPKGSTGKIDRKVLRQMLEKHTNGHHHHHHHH
B4: MK0149: SEQ ID NO: 115; H244W+S193A+N228D+L305F+S306P+I109V+C38R+F55I+Y108F+A316W+Y339M+T342S+V348I+C257R+T284A+T289S+L437R (protein)
chain: MADKNILYGPEPFYPLEDGTAGEQMFDALSRYAAIPGRIALTNAHTKENVLYEEILKLSCRLAESFKKYGLKQNDTIAVCSENSLQFFLPVIASLYLGIIVAPVNDKFVERELIHSLGIVKPRIVFCSKNTFQKVLNVKSKLKSIETIIILDLNEDLGGYQCLNNFISQNSDSNLDVKKFKPYSFNRDDQVAAIMFSSGTTGLPKGVMLTHKNIVARFSIAKDPTFGDAINPTSAILTVIPFHWGFGMMTTLGYFTRGFRVVLMHTFEEKLFLQSLQDYKVESALLVPSLMAFLAKSALVEKYDFPHLKEIASGGWPLSKEIGEMVKKRFKLNFVRQGMGLSETTSAILITPKGDAKPGSTGKIVPLHAVKVVDPTTGKILGPNEPGELYFKGPMIMKGYYNNEEATKAIIDNDGWLRSGDIAYYDNDGHFYIVDRRKSLIKYKGYQVAPAEIEGILLQHPYIVDAGVTGIPDEAAGELPAAGVVVQTGKYLNEQIVQDYVASQVSTAKWLRGGVKFLDEIPKGSTGKIDRKVLRQMLEKHTNGHHHHHHHH
B5: MK0153: SEQ ID NO: 118; H244W+S193A+N228D+L305F+S306P+I109V+C38R+F55I+Y108F+A316W+Y339M+T342S+V348I+T289S+K353R+D435G+W510R (protein)
chain: MADKNILYGPEPFYPLEDGTAGEQMFDALSRYAAIPGRIALTNAHTKENVLYEEILKLSCRLAESFKKYGLKQNDTIAVCSENSLQFFLPVIASLYLGIIVAPVNDKFVERELIHSLGIVKPRIVFCSKNTFQKVLNVKSKLKSIETIIILDLNEDLGGYQCLNNFISQNSDSNLDVKKFKPYSFNRDDQVAAIMFSSGTTGLPKGVMLTHKNIVARFSIAKDPTFGDAINPTSAILTVIPFHWGFGMMTTLGYFTRGFRVVLMHTFEEKLFLQSLQDYKVESTLLVPSLMAFLAKSALVEKYDFPHLKEIATGGWPLSKEIGEMVKKRFKLNFVRQGMGLSETTSAILITPRGDAKPGSTGKIVPLHAVKVVDPTTGKILGPNEPGELYFKGPMIMKGYYNNEEATKAIIDNDGWLRSGDIAYYDNDGHFYIVDRLKSLIKYKGYQVAPAEIEGILLQHPYIVDAGVTGIPDEAAGELPAAGVVVQTGKYLNEQIVQDYVASQVSTAKWLRGGVKFLDEIPKGSTGKIDRKVLRQMLEKHTNGHHHHHHHH

What was measured:
Assay type in all cases: biochemical
[1] = Luminescence at 1 mM D/L-luciferin (Table 11); settings: 1 mM substrate, 1 mM ATP
Source text: (§1) Tables 10 and 11 include representative results of kinetic analysis of the thermostable variants with D/L luciferin, CS0333, and CS0280. […] MK0135 and MK0137 have amino acid substitutions that improve thermostability relative to MK0133 and MK0134, respectively, while retaining activity on the luciferin analogs CS0333 and CS0280.

[2] = Luminescence at 1 mM CS0333 (Table 11); settings: 1 mM substrate, 1 mM ATP
Source text: as §1

[3] = Kinetic analysis of thermostable variants with CS0280 (Tables 13, 14); settings: 2 mM ATP
Source text: (§2) Tables 13 and 14 include representative results of kinetic analysis of the thermostable variants with D/L luciferin, CS0333, and CS0280. The panel of enzyme variants highlight amino acid substitutions that further improve upon MK0137 in maximum luminescence (Vmax) or Km in different buffers with the different substrates tested (D/L-luciferin, CS0333, and CS0280). In particular, enzyme variants MK0151 and MK153 show improvements relative to MK0137 across multiple buffers with multiple substrates.

[4] = Kinetic analysis of thermostable variants with CS0333 (Tables 13, 14); settings: 2 mM ATP
Source text: as §2

[5] = Luminescence at 1 mM CS0280 (Table 11); settings: 1 mM substrate, 1 mM ATP
Source text: as §1

[6] = Kinetic analysis of thermostable variants with D/L-luciferin (Tables 13, 14); settings: 2 mM ATP
Source text: as §2

Row | Molecule | Vmax (RLU) D/L-luciferin BrightGlo Buffer [1] | Vmax (RLU) D/L-luciferin Detection Reagent Buffer [1] | Vmax (RLU) CS0333 BrightGlo Buffer [2] | Vmax (RLU) CS0333 Detection Reagent Buffer [2] | Km ([3]; BrightGlo Buffer) [µM] | Vmax (RLU) ([3]; BrightGlo Buffer) | Km ([3]; Detection Reagent Buffer) [µM] | Vmax (RLU) ([3]; Detection Reagent Buffer) | Km ([4]; BrightGlo Buffer) [µM] | Vmax (RLU) ([4]; BrightGlo Buffer) | Km ([4]; Detection Reagent Buffer) [µM] | Vmax (RLU) ([4]; Detection Reagent Buffer) | Vmax (RLU) CS0280 BrightGlo Buffer [5] | Vmax (RLU) CS0280 Detection Reagent Buffer [5] | Km ([6]; BrightGlo Buffer) [µM] | Vmax (RLU) ([6]; BrightGlo Buffer) | Km ([6]; Detection Reagent Buffer) [µM] | Vmax (RLU) ([6]; Detection Reagent Buffer)
1 | B1 | 1,227,230 RLU | 515,688 RLU | 3,525,730 RLU | 2,139,740 RLU | 8.94 | 359,383 RLU | 619 | 26,247 RLU | 8.44 | 2,895,248 RLU | 48.4 | 543,865 RLU | 620,182 RLU | 21,505 RLU | 0.0737 | 1,993,509 RLU | 0.21 | 332,703 RLU
2 | B2 | 1,074,780 RLU | 249,347 RLU | 8,608,150 RLU | 4,805,980 RLU | 4.88 | 534,004 RLU | 632 | 58,187 RLU | 6.45 | 4,586,290 RLU | 37.6 | 727,712 RLU | 1,490,130 RLU | 76,615 RLU | 0.0834 | 924,955 RLU | 0.265 | 123,752 RLU
3 | B3 | 954,983 RLU | 103,199 RLU | 405,859 RLU | 175,261 RLU | 5.74 | 330,383 RLU | 848 | 10,047 RLU | 4.09 | 519,457 RLU | 56.8 | 49,798 RLU | 484,293 RLU | 11,418 RLU | 0.0583 | 1,055,203 RLU | 0.395 | 60,231 RLU
4 | B4 | 416,355 RLU | 52,341 RLU | 1,433,640 RLU | 1,270,240 RLU | 5.6 | 652,464 RLU | 678 | 44,058 RLU | 4.89 | 1,336,251 RLU | 48.4 | 353,432 RLU | 1,368,890 RLU | 57,404 RLU | 0.0482 | 351,895 RLU | 0.26 | 33,641 RLU
5 | B5 | 509,406 RLU | 78,859 RLU | 3,768,010 RLU | 2,570,070 RLU | 7.71 | 1,098,792 RLU | 474 | 88,269 RLU | 6.66 | 4,114,986 RLU | 22 | 822,270 RLU | 1,803,730 RLU | 90,671 RLU | 0.176 | 1,081,804 RLU | 0.435 | 75,581 RLU
